In patent US20230176070A1:

What follows are binders tested against glutathione S-transferase [GST: P08515] (assay: indirect ELISA, GST coated).
Chain of glutathione S-transferase [GST: P08515] (P08515 whole entry): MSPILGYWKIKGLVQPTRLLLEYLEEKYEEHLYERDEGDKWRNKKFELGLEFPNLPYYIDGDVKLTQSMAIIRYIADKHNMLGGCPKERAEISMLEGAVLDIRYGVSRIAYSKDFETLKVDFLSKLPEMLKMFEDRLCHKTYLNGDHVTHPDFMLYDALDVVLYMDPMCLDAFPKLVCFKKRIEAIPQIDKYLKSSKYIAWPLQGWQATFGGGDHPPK

Binder	ELISA affinity (LogIC50 (oD450nm))
G27 (VHH) VHH: DVQLVESGGDLVQAGGSLRLSCSASGNIFKINDMDWYRQAPGKQRELVARISSSGSTNYADSVKGRFTISRDNGKNTVYLQMNRVKPEDTAVYYCNADVQVSRNYEYEYWGQGTQVTVSS	1.36
G25 (VHH) VHH: EVQLVESGGGLVQAGGSLRLSCAASGRTFSGRTFSDYPMAWFRQAPGKEREFLATISTSGSRTYYADSVKGRFTISRDNAKDTVYLQMNSLKPEDAAIYYCAARQGSYYSDYNRALPGEYDYWGQGTQVTVSS	1.57
G41 (VHH) VHH: DVQLVESGGGLVQAGGSLRLSCVASGHTVSNYAMAWFRQAPGKEREFVAGISWRASITYYRDSVKGRFTISRDNAKNTVYLQMSSLKPEDTAVYYCASDKTHYVSRGTSLVEYDYWGQGTQVTVSS	1.02
G23 (VHH) VHH: QVQLVESGGGLVQPGGSLRLSCAASGFTFSVNTMSWVRQAPGKGREWVSGIESHGNTYYSDSVKGRFTISRDNAKNTLYLQMNSLKPEDTAVYYCATGIYGTTRNWGQGTQVTVSS	2.54
G45 (VHH) VHH: EVQLVESGGGLVQPGGSLRLSCAASGSIFSINSMGWYRQAPGKQRELVAAITSGGSTNYANSVKGRFTISRNNARNTVWLQMNSLKPEDTAVYYCNADLNVVRGYSGDYHGSSDYWGQGTQVTVSS	3.17
G14 (VHH) VHH: EVQLVESGGGLVQAGGSLRLSCAASGSTFDTNPIGWYRQAPGKQRDLVAMITSGGHTNYADSVKGRFTISRDNAKNTVYLQMNSLKPEDTAVYYCTVPHYREDGYEYHFWGQGTQVTVSS	5.27
G19 (VHH) VHH: QVQLVESGGGLVQAGGSLRLSCAASGSTFSTNAVDWYRQAPGNQRDLVATITSGGHTNYADSVKGRFTISRDNAKNTVYLQMNSLKPEDTAVYYCAVPHYREDGYEYRFWGQGTQVTVSS	9
G15 (VHH) VHH: QVQLVESGGGLVQAGGSLRLSCAASGSTFDTNPIGWYRQAPGKQRDLVAMITSGGHTNYADSVKGRFTISRDNAKNTVYLQMNSLKPEDTAVYYCTVPHYREDGYEYHCWGQGTQVTVSS	4.61
G49 (VHH) VHH: EVQLVESGGGLVQAGGSLRLSCAASRSTFSINAAGWYRQAPGKQRELVAAISSGGSANYADSVKGRFIISRDNAKNTVYLQMNSLKPEDTAVYYCRVPYYRDDGYEYYSWGQGTQVTVSS	5.54
G8 (VHH) VHH: QVQLVESGGGLVQAGGSLRLSCAASGITSSIASMGWFRQAPGKEEEFVARIRWNTDNTYYADSVKGRFTISRDNAQNTVYLQMNRLKPEDTAVYYCVARRGWSDLLYDYRGQGTQVTVSS	4.66
G1 (VHH) VHH: QVQLVESGGGLVQAGGSLRLSCAAPGSTFSTNIIAWYRQPPGKQRELVAAIGGPGSTNYADSVKGRFTISRDNAKNTGYLQMKSLKPDDTAVYYCNMVTQRGNEYWGQGTQVTVSS	2.93
G43 (VHH) VHH: EVQLVESGGGLVQAGGSLRLSCATSGRTSSTYAMGWFRQRPGKEREFVATIHWGVGSTIYADSVKGRFTLSRDNAQNTVYLQMNSLKPEDTAVYYCAASTYRIGSYDVSTSQGYNYWGQGTQVTVSS	4.32
G12 (VHH) VHH: QVQLVESGGGLVQAGGSLRLSCAASRSTFRINAAGWYRQAPGKERELVARISSGGSTNYADSVKGRFTISRDNAKNTVYLQMNSLKPEDTAVYYCNVPYYREDGYEYDAWGQGTQVTVSS	4.21
G42 (VHH) VHH: HVQLVESGGGFVQAGGSLRLSCEASGRTFNVYTMGWFRQAPGKEREFVGSISWNGGSTYYADSVKGRFTISRDNAKNTVYLQMNSLEPEDTAVYYCAARRQSHLRLDLSVIDAWGKGTQVTVSS	2.63
G39 (VHH) VHH: HVQLVESGGELVQSGSSLRLSCAASGFDLDDYAIGWFRQAPGKEREGVSCTSTSDGPTSYLDSVKGRFTFSRDNAKNTLYLQMNSLKPEDTAVYYCAAISHIFAEDAPAMGLCWDQRSAFWYWGQGTQVTVSS	1.65
G16 (VHH) VHH: EVQLVESGGGLVQPGGSLRLSCAASGSTFSINAIGWYRQAPGKEREFVAALRWPGNIWYYADFVEGRITISRDNAKNTVYLQMNSLKPEDTAVYYCAARPENRGSYRDAATYDFWGQGTQVTVSS	5.68
G30 (VHH) VHH: QVQLVESGGGLVQAGGSLRLSCAASGRTINNYDMGWFRQAPGKEREFVAAITWSGRDTNYADSVKGRFTVSRDDAKNTVYLQMNTLSPEDTAVYYCASARIQFYRLVAATRTDYSYWGQGTQVTVSS	4.86
G44 (VHH) VHH: DVQLVESGGGLVQAGGSLRLSCVASGPIFSFSTGGWYRQAPGKQRELVAALTGGGNTNYADSVKGRFTISRDNAKNTVYLQMNLLKPEDTAVYYCQVMYYSGYDGYESTSWGQGTQVTVSS	3.06
G20 (VHH) VHH: DVQLVESGGGLVQAGGSLRLSCAASERTFSRYMLGWFRQAPGKEREFVGVMGWSDSDTYYGDAVKGRFTISRDNVKNTIYLQMKSLKPEDTAVYYCAASAYGSTRNHKLYEYWGQGTQVTVSS	2.43
G37 (VHH) VHH: EVQLVESGGGLVQAGDSLRLSCVASGDTFTSYTVGWFRQAPGKEQEFVAGISWSGRSTDYADFVKGRATISKDIAKVSLQMNALKPEDTAVYSCAAKKVDWSSDYVTNYDYDYRGRGTQVTVSS	1.78

Second part, the binder after the results:

ELISA affinity (LogIC50 (oD450nm))	Binder
1.15	G91 (VHH) VHH: EVQLVESGGGLVQAGGSLRLSCAASGRTFSDYPMAWFRQALGKEREFLATISTSGSRTMYADSVKGRFTISRDNAKNMMYLQMNSLKPEDAAVYYCAARQGSYYSDYNRALPGEYHYWGQGTQVTVSS
5.74	G89 (VHH) VHH: EVQLVESGGGLVQAGGSLSLSCAASGSINSINAMGWFRQAPGKQRELVATITRGGSTNYADSVKGRFTISIDNAKNTVYLQMNSLKPEDTAVYYCNADRGTDDGWLYDYWGQGTQVTVSS
2.07	G79 (VHH) VHH: DVQLVESGGGLVQAGGSLRLSCATSGRTFSTYAAGWFRQRPGKEREFVATIHWNDGRTLYADSVKGRFTLSRDNAQNTVYLQMNSLKPEDTAVYYCAAYTYRIGSYDVSTSQGYDYWGQGTQVTVSS
4.67	G98 (VHH) VHH: QVQLVESGGGLVQAGDSLRLSCATSGRTFSTYAAGWFRQRPGKEREFVATIHWNDGRTLYADSVKGRFTLSRDNAQNTVYLQMNSLKPEDTAVYYCAASTYRIGSYDVSTSQGYDYWGQGTQVTVSS
6.77	G96 (VHH) VHH: DVQLVESGGGLVQAGGSLKLSCAAFGVTFDINTIAWYRQAPGKQREFVAHITSGGTTYYADSVKARFTMSRDSAKNTVYLQMNNLKPEDTAVYYCNVNPTWPYSGEVDYWGQGTQVTVSS
4.45	G51 (VHH) VHH: QVQLVESGGGLVQAGGSLKLSCAASGITFSINTIGWYRQAPGKQREFVAHITSDSTTYYADSVKARFTISRDSAKNTVHLQMNNLKPEDTAVYYCNVNPTWPYGGEVDYWGQGTQVTVSS
3.3	G97 (VHH) VHH: EVQLVESGGGLVQAGGSLRLSCTASRSTFRVNPAGWYRQAPGKERELVARITSGGSTNYADSVKGRFTISRDNAKNTVYLQMNSLKPEDTAVYYCNVPCYMEDGYEHDAWGQGTQVTVSS
1.09	G50 (VHH) VHH: EVQLVESGGGLVQAGGSLRLSCAASGRTFSRYHMGWFRQAPGKERDVVAAISWSGDSTYYADSVKGRFTISKDNAKNTVYLQMDSLKPEDTAVYYCATLSGWDGDTIFPAGSWGQGTQVTVSS
2.08	G78 (VHH) VHH: DVQLVESGGGLVQAGGSLRLSCTASQSILYINVMGWYRQAPGKQRELVAEIPTGGNTDYADSVKGRFTISRDNVKNTVSLQMNSLKPEDTAVYYCNVRGGVLSPYDYWGQGTQVTVSS
2.16	G93 (VHH) VHH: QVQLVESGGGLVQPGGSLRLSCAASGSGFSSSIIGWHRQAPGKQRELVAAIGGPGSTNYADSVKGRFTISRDNAKNTAYLQMNNLKPEDSAVYYCEATTRSGREYWGQGTQVTVSS
5.83	G90 (VHH) VHH: DVQLVESGGGLVQAGGSLRLSCAASGLTFSNYAMGWFRQAPGKEREFAAGITWNGGASHYADSVKGRFTISRDNAQNTVYLQMNSLKPEDTAVYYCAARLGSVAYPGLRYDYWGQGTQVTVSS
4.43	G80 (VHH) VHH: QVQLVESGGGLVQAGASLRLSCAASRGTFSSYTMGWFRQAPGKERLFVASISRDGGTTYYADSVKGRFTISRDNAENILYLQMNSLKPEDTAVYYCAAASRHPSTWEVWGLEYYYWGQGTQVTVSS
5.54	G86 (VHH) VHH: EVQLVESGGGLVQAGDSLRLSCAASGRTFSSYTMGWFRQAPGKEREFVAGIRWSGGSTYFTNYEDSVKGRFTISKDNAKNTVFLQMNSLRPEDTAVYYCAFTGHYSTYDSPQRYDYWGQGTQVTVSS
